Test results from PMC2917274, “Structure of Staphylococcus aureus adenylosuccinate lyase (PurB) and assessment of its potential as a target for structure-based inhibitor discovery” (Acta Crystallographica Section D: Biological Crystallography, 2010).

T1: SaPurB (Staphylococcus aureus, UniProt Q7A0G9)
T1 construct: gene purB; full length (domains described over residues 1-431); N-terminal His tag removed by TEV protease (modified pET15b); expressed in E. coli BL21(DE3) pLysS; dimer in gel filtration, homotetramer in crystal, each active site from three subunits
T1 sequence (Q7A0G9 1-431): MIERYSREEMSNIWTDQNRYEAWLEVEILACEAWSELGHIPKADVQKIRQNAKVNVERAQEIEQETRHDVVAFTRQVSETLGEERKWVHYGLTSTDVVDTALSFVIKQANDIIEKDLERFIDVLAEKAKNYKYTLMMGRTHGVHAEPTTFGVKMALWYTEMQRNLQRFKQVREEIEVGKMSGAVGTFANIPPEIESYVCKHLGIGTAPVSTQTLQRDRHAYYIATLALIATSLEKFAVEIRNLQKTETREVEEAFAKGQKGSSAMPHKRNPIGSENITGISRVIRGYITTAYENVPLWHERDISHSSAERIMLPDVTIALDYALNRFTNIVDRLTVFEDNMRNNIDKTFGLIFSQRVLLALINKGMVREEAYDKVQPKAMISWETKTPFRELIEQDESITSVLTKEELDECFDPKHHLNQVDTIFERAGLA

B1: Staphylococcus aureus adenylosuccinate lyase (PurB) (enzyme, UniProt Q2FFI7 1-431, looked up)
chain: MIERYSREEMSNIWTDQNRYEAWLEVEILACEAWSELGHIPKADVQKIRQNAKVNVERAQEIEQETRHDVVAFTRQVSETLGEERKWVHYGLTSTDVVDTALSFVIKQANDIIEKDLERFIDVLAEKAKNYKYTLMMGRTHGVHAEPTTFGVKMALWYTEMQRNLQRFKQVREEIEVGKMSGAVGTFANIPPEIESYVCKHLGIGTAPVSTQTLQRDRHAYYIATLALIATSLEKFAVEIRNLQKTETREVEEAFAKGQKGSSAMPHKRNPIGSENITGISRVIRGYITTAYENVPLWHERDISHSSAERIMLPDVTIALDYALNRFTNIVDRLTVFEDNMRNNIDKTFGLIFSQRVLLALINKGMVREEAYDKVQPKAMISWETKTPFRELIEQDESITSVLTKEELDECFDPKHHLNQVDTIFERAGLA
notes: domains I-III span residues 1-431; theoretical subunit mass 49.6 kDa; Vector pET15b changed to carry a TEV site in place of the thrombin site; Dimer by gel filtration, tetramer in the crystal; also called SaPurB

Key:
SaPurB = target: T1, SaPurB; assay: X-ray crystal structure, […] Å; format: binding; conditions: co-crystallized with 25 mM AMP, pH 6.2, 293 K; active site; oxalate tentatively modelled nearby
[1] = target: the molecule itself; assay: crystal structure; 2.5 A, space group I222, one chain per asymmetric unit, tetramer built by crystallographic twofold axes; with AMP and oxalate; crystals at 293 K from 45% PEG 200, 0.2 M NaCl, 0.1 M sodium phosphate pH 6.2
[2] = target: the molecule itself; assay: SEC; Superdex 200 26/60, 50 mM Tris-HCl, 250 mM NaCl pH 7.5, column calibrated with molecular-weight standards; final stage of purification

Row | Molecule | X-ray crystal structure, 2.5 Å (SaPurB) | stoichiometry N [1] | stoichiometry N [2]
1 | Nc1ncnc2c1ncn2[C@@H]1O[C@H](COP(=O)(O)O)[C@@H](O)[C@H]1O [AMP] | The structure of AMP in the active site of SaPurB |  | 
2 | B1 |  | 4 | 2
